From publication PMC4728371 (Genome Research, 2016)

Biological target: the molecule itself
Assay: SEC-MALS

B1: ZAK LZ-SAM (residues 286-410), purified (domain or fragment, human, UniProt Q9NYL2-1 286-410, looked up)
chain: EIEATLERLKKLERDLSFKEQELKERERRLKMWEQKLTEQSNTPLLPSFEIGAWTEDDVYCWVQQLVRKGDSSAEMSVYASLFKENNITGKRLLLLEEEDLKDMGIVSKGHIIHFKSAIEKLTHD
- stoichiometry N: 2
